Blank lines part the entries; values can stand above or below the molecule they belong to.
How the values were obtained:
[1] = biological target: Third plant homeodomain (PHD3) finger of MLL, residues 1565-1627 (human) (UniProt Q03164); assay: ITC
[2] = biological target: Cyp33 RRM domain (human, UniProt Q9UNP9 1-90); assay: NMR
Chain of Cyp33 RRM domain (Q9UNP9 1-90): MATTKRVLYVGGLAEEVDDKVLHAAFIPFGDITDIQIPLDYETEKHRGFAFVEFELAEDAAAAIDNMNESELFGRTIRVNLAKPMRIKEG

Chain of Third plant homeodomain (PHD3) finger of MLL, residues 1565-1627 (human) (Q03164 1565-1627): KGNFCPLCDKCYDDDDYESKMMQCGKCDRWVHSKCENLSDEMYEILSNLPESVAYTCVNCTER

fold reduction of affinity against the wild type [1]: 35 fold
Molecule: Cyp33 RRM domain F49A mutant (from UniProt Q9UNP9 1-90) (domain or fragment)

fold reduction of affinity against the wild type [1]: 10 fold
Molecule: Cyp33 RRM domain L39A mutant (from UniProt Q9UNP9 1-90) (domain or fragment)

Kd [1]: 1900 nM
dH [1]: -10 kcal
Molecule: RRM domain of human Cyclophilin 33 (Cyp33), residues 1-90 (from UniProt Q9UNP9 1-90) (domain or fragment)

Molecule: AAUAAA (ssRNA) [AAUAAA RNA]
Kd [2]: 198 ± 11 µM

— PMC3204800
